Data from patent US20190309034A1 (Boehringer Ingelheim, published 2019).

How the values were obtained:
Assay in all cases: cell-based or functional assay
[1] = target: Recombinant soluble trimeric human BAFF (furin-cleaved human BAFF 134-285) (human, UniProt Q9Y275 134-285)
[2] = target: Recombinant soluble 60-mer human BAFF (His-HuBAFF 134-285) (human, UniProt Q9Y275 134-285)
[3] = target: Human membrane-bound BAFF (mbBAFF) (human, UniProt Q9Y275 1-285)

B1: 560H2A7 (antibody, V domains shown)
VH: EVKLVESGGGLVQPGGSLSLSCAGSGFTFSDYYMSWVRQPPGKALEWLALIRNKAPGYTTEYSASVKGRFTISRDNSQSILYLQMNALRPEDSATYYCARVLRRADCLDYWGQGTALTVSS
VL: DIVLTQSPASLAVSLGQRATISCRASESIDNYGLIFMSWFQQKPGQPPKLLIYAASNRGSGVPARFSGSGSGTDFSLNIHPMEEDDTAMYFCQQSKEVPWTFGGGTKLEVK
Soluble trimeric huBAFF (50 pM) Neutralization IC50 [1]: 35 pM
Soluble trimeric huBAFF (50 pM) Neutralization IC90 [1]: 324 pM
Soluble 60-mer huBAFF (4 pM) Neutralization IC50 [2]: 13 pM
Soluble 60-mer huBAFF (4 pM) Neutralization IC90 [2]: 30 pM

B2: 606H7F8 (antibody, V domains shown)
VH: VQLVESGGGLVKPGGSLKLSCAASGFTFSSYDMSWVRQTPEKRLEWVAAINSYGVNTYYPDTVKDRFTISRDNAKNTLYLQMSSLRSEDTALYYCARLLIGPYYYAMDYWGQGTSVTVSS
VL: DIQMTQSPASLSASVGETVTITCRASGNIHNYLAWYQQKQGKSPQLLVYNAKTLADGVPSRFSGSGSGTQFSLKINSLQPEDFGSYYCQHFWSTPYTFGGGTKLEIK
Soluble trimeric huBAFF (50 pM) Neutralization IC50 [1]: 29 pM
Soluble trimeric huBAFF (50 pM) Neutralization IC90 [1]: 378 pM
Soluble 60-mer huBAFF (4 pM) Neutralization IC50 [2]: 12 pM
Soluble 60-mer huBAFF (4 pM) Neutralization IC90 [2]: 44 pM

B3: 1002E8A6 (antibody, V domains shown)
VH: EVQLQQSGPELVKPGASVKMSCKASGYTITSYVMHWVKQKPGQGLEWIGYINPNNDGTKYNEKFKGKATLTSDKSSNTAYMELSSLTSEDSAVYYCARGDYSNYFYWYFDVWGAGTTVTVSS
VL: DIKMTQSPSSMYASLGERVTITCKASQDINSYLTWFQQKPGKSPETLIYRANRLVSGVPSRFSGSGSGQDYSLTISSLEYEDMGIYSCLQYDEFPYTFGGGTKLEIK
Soluble trimeric huBAFF (50 pM) Neutralization IC50 [1]: 107 pM
Soluble trimeric huBAFF (50 pM) Neutralization IC90 [1]: 824 pM
Soluble 60-mer huBAFF (4 pM) Neutralization IC50 [2]: 29 pM
Soluble 60-mer huBAFF (4 pM) Neutralization IC90 [2]: 79 pM
Potent mbBAFF Neutralization IC50 [3]: 0.141 nM
Potent mbBAFF Neutralization IC90 [3]: 2.09 nM

B4: 1070A6B7 (antibody, V domains shown)
VH: QVPLQQPGAEMVRPGASMRLSCKASGYTFPGYWMHWVKQRPRQGLEWIAKIDPSDSETHYNQNFKDKATLTVDKYSNTVYMQLNSLTSEDSAVYYCANEGWDSLTKVWFGWWGQGTLVTVSA
VL: DVVMTQTPLSLPVSLGDQASISCRCSQSLVHSNGNTYLHWYLQKPGQSPKLLIYKVSDRFSGVPDRFSGSGSGTDFTLRISRVEADDLGVYFCSQSTHVPLTFGAGTKLELK
Soluble trimeric huBAFF (50 pM) Neutralization IC50 [1]: 43 pM
Soluble trimeric huBAFF (50 pM) Neutralization IC90 [1]: 677 pM
Soluble 60-mer huBAFF (4 pM) Neutralization IC50 [2]: 20 pM
Soluble 60-mer huBAFF (4 pM) Neutralization IC90 [2]: 56 pM
Potent mbBAFF Neutralization IC50 [3]: 0.147 nM
Potent mbBAFF Neutralization IC90 [3]: 1.06 nM

B5: 1094C4E6 (antibody, V domains shown)
VH: EVQLQQSGAELVRPGASVKLSCTASGFNIKDDYMHWVKQTPEQGLEWIGRIDPAYGNGKYVPKFQDKATITADTSSNTAYLQLSSLTSEDTAVYYCARRYYAVSSVDYALDYWGQGTSVTVSS
VL: DIVMTQSHKFMSTSVGDRVTITCKASQDVATAVAWYQQKPGQSPKLLIYWASTRHTGVPDRFTGSGSGTDFTLTISNVQSEDLANYFCQQYSNYPYTFGGGTTLEIK
Soluble trimeric huBAFF (50 pM) Neutralization IC50 [1]: 384 pM
Soluble trimeric huBAFF (50 pM) Neutralization IC90 [1]: 1100 pM
Soluble 60-mer huBAFF (4 pM) Neutralization IC50 [2]: 4050 pM
Soluble 60-mer huBAFF (4 pM) Neutralization IC90 [2]: 20900 pM
Potent mbBAFF Neutralization IC50 [3]: 2.56 nM
Potent mbBAFF Neutralization IC90 [3]: 175 nM

B6: 27I21-3C7 (antibody, V domains shown)
VH: QVQLQQSGPELVRPGTSVKISCKAPGYIFTSHWMQWVRQRPGQGLEWIGDIFPGSGTTDYNEKFKDKATVTVDRSSSSAYMQFNSLTSEDSAVYFCASGAFDYWGQGTTLTVSS
VL: DIQMTQSPSSLSASLGERVSLTCRASQDIGNRLNWLQQAPDGTIKRLIYATSSLDSGVPKRFSGSRSGSDYSLTISSLESEDFVDYYCLQYASYPFTFGTGTKLEIK
Soluble trimeric huBAFF (50 pM) Neutralization IC50 [1]: 55 pM
Soluble trimeric huBAFF (50 pM) Neutralization IC90 [1]: 326 pM
Soluble 60-mer huBAFF (4 pM) Neutralization IC50 [2]: 11 pM
Soluble 60-mer huBAFF (4 pM) Neutralization IC90 [2]: 33 pM

B7: 317H2A6 (antibody, V domains shown)
VH: QVTLKESGPGILQPSQTLSLTCSFSGFSLRTFGMGVGWIRQPSGKGLEWLAHIWWNGDKYYDPALKSRLTISKDTSENRVFLNIANVDTTDTAPYYCVRIGPSITTVAEGFAYWGQGTLVTVSA
VL: DIVMTQSQKFLSTTIGDRVSITCKASQNVGSAVVWYQQKPGQPPKLLITSASNRYSGVPDRFTGSGSGTDFTLTVSNVQSVDLADYFCQQYSNYPLTFGAGTKLELK
Soluble trimeric huBAFF (50 pM) Neutralization IC50 [1]: 97 pM
Soluble trimeric huBAFF (50 pM) Neutralization IC90 [1]: 327 pM
Soluble 60-mer huBAFF (4 pM) Neutralization IC50 [2]: 4 pM
Soluble 60-mer huBAFF (4 pM) Neutralization IC90 [2]: 13 pM

B8: 319B8A12 (antibody, V domains shown)
VH: KVTLKESGPGILQPSQTLSLTCSFSGFSLRTFGMGVGWIRQPSGKGLEWLAHIWWNDEKYYNPDLKSRLTVSKDSSKNQVFLTIANVDTSDTAPYYCTRVGPSISTVAEGFPYWGQGTLVTVSA
VL: DIVMTQSQKFVSTRVGDRVSITCKASQNVGAAVVWYQQKSGQPPKLLIRSASNRYIGVPDRFTGSGSGTDFTLTVSDVQSGDLADYFCQQYSNYPLTFGAGTKLELTR
Soluble trimeric huBAFF (50 pM) Neutralization IC50 [1]: 91 pM
Soluble trimeric huBAFF (50 pM) Neutralization IC90 [1]: 331 pM
Soluble 60-mer huBAFF (4 pM) Neutralization IC50 [2]: 8 pM
Soluble 60-mer huBAFF (4 pM) Neutralization IC90 [2]: 24 pM

B9: 320F9C5 (antibody, V domains shown)
VH: QVTLKESGPGILQSSQTLSLTCSFSGFSLRTFGMGVGWIRQPSGKGLEWLAHIWWNDDKSSHPALKSRLTISKDTSKNQVFLKIANVDTAETATYYCVRIGPSITTVAEGFAYWGQGTLVTVSA
VL: DIVMTQSQKFMSTTVGDRVSITCKASQNVGSVVAWYQQRPGQSPTLLIYSASNRYTGVPDRFTGSGSGTDFTLTISNMQSEDLADYFCQQYSSYPLTFGAGTKLELK
Soluble trimeric huBAFF (50 pM) Neutralization IC50 [1]: 110 pM
Soluble trimeric huBAFF (50 pM) Neutralization IC90 [1]: 3110 pM
Soluble 60-mer huBAFF (4 pM) Neutralization IC50 [2]: 10 pM
Soluble 60-mer huBAFF (4 pM) Neutralization IC90 [2]: 24 pM

B10: 323E9D1 (antibody, V domains shown)
VH: QVTLKESGPGILQPSQTLSLTCSFSGFSMRTFGMGVGWIRQPSGKGLEWLAHIWWNDEKYYNPDLKSRLTVSKDSSKNQVFLTIANVDTSDTAPYYCTRVGPSISTIAEGFPYWGQGTLVTVSA
VL: DIVMTQSQKFVSTRVGDRVSITCKASQNVGAAVVWYQQKSGQPPKLLIRSASNRYIGVPDRFTGSGSGTDFTLTVSDVQSGDLADYFCQQYSNYPLTFGAGTKLELT
Soluble trimeric huBAFF (50 pM) Neutralization IC50 [1]: 148 pM
Soluble trimeric huBAFF (50 pM) Neutralization IC90 [1]: 312 pM
Soluble 60-mer huBAFF (4 pM) Neutralization IC50 [2]: 6 pM
Soluble 60-mer huBAFF (4 pM) Neutralization IC90 [2]: 23 pM

B11: 332C1B12 (antibody, V domains shown)
VH: QVQLQQPGAELVKPGASVKLSCKASGYTFTNDNYWMNWMKQRPGRGLEWIGRIRPSDSETHYNQKFTNKATLTVDKSSSTAYIQLSSLTSVDSAVYYCARSWEDLLLRSMEDYFDYWGQGTTLTVSS
VL: DIVLTQSPASLPVSLGQRATISCRASKGVSTSSYTFIHWYQQKPGQPPKLLIKYASNLESGVPARFSGSGSGTDFTLNIHPVEEEDVATYYCQHSREFPRTFGGGTKLEIK
Soluble trimeric huBAFF (50 pM) Neutralization IC50 [1]: 99 pM
Soluble trimeric huBAFF (50 pM) Neutralization IC90 [1]: 457 pM
Soluble 60-mer huBAFF (4 pM) Neutralization IC50 [2]: 12 pM
Soluble 60-mer huBAFF (4 pM) Neutralization IC90 [2]: 40 pM

B12: 344B9D9 (antibody, V domains shown)
VH: EFQLQQSGPELGEPGASVKISCKASGFSFSDYNINWVKQSNGKSLEWIGKVHPKDGTATYNQKFQDKATLTLDQSSSTAYMQLSSLTSEDSAVYYCLPLYYDSLTKILFAYWGQGTLVTVSA
VL: DIQMTQSPASLSASVGETVTITCRASGNIHNYLAWYQQKQGKSPQLLVYSAITLADGVPSRFSGSGSETQFSLKINSLQPEDFGIYYCQHFWNTPYTFGGGTKLEIK
Soluble trimeric huBAFF (50 pM) Neutralization IC50 [1]: 102 pM
Soluble trimeric huBAFF (50 pM) Neutralization IC90 [1]: 352 pM
Soluble 60-mer huBAFF (4 pM) Neutralization IC50 [2]: 11 pM
Soluble 60-mer huBAFF (4 pM) Neutralization IC90 [2]: 32 pM

B13: 348A6C1 (antibody, V domains shown)
VH: QVTLRESGPGILQPSQTLSLTCSFSGFSLRTFGMGVGWIRQPSGKGLEWLAHIWWNDEKYYNPALKSRLTVSKDSSENQVFLKIANVDTTDTAPYYCARLGPSITTVAEGFPYWGQGTLVTVSA
VL: DIVMTQSQKFMSTTVGDRVSITCKASQNVGAAVAWYQQKPGQPPKLLIRSASNRYIGVPDRFTGSGSGTDFTLTVSDVQSVDLADYFCQQYSNYPLTFGAGTKLELTR
Soluble trimeric huBAFF (50 pM) Neutralization IC50 [1]: 110 pM
Soluble trimeric huBAFF (50 pM) Neutralization IC90 [1]: 329 pM
Soluble 60-mer huBAFF (4 pM) Neutralization IC50 [2]: 9 pM
Soluble 60-mer huBAFF (4 pM) Neutralization IC90 [2]: 29 pM

B14: 352G11A10 (antibody, V domains shown)
VH: QVQLQQSGPELVKPGGSVRISCKASGYSLISYYIHWVKQRPGQGLEWIGLTFPGSGNSKFIEKFKGKATLTADTSSNTAYIQLSSLTSEDSAVYYCTRGDFGNYLAYWYFDVWGTGTTVTVSS
VL: DIKMTQSPSSIYASLGERVTITCKASQDIHSYLSWFQQKPGKSPKTLMYRTNRLVDGVPSRFSGSGSGQDYSLTIRSLEYEDMGNYYCLQYDEFPYTFGGGAKLEVK
Soluble trimeric huBAFF (50 pM) Neutralization IC50 [1]: 99 pM
Soluble trimeric huBAFF (50 pM) Neutralization IC90 [1]: 444 pM
Soluble 60-mer huBAFF (4 pM) Neutralization IC50 [2]: 21 pM
Soluble 60-mer huBAFF (4 pM) Neutralization IC90 [2]: 90 pM

B15: 363D4A10 (antibody, V domains shown)
VH: QVTLKESGPGILQSSQTLSLTCSFSGFSLKTFGMGVGWIRQPSGKGLEWLAHIWWNDDKFYHPALKSRLTISKDTSKNQVFLKIANVDTAETATYYCVRIGPSITTVAEGFAYWGQGTLVTVSA
VL: DIVMTQSQKFMSTTVGDRVTITCKASQNVGSAVVWYQQKPGQSPILLIFSASNRYTGVPDRITGSGSGAEFTLTISSVQSEDLAEYFCQQYSSYPLTFGAGTKLELK
Soluble trimeric huBAFF (50 pM) Neutralization IC50 [1]: 21 pM
Soluble trimeric huBAFF (50 pM) Neutralization IC90 [1]: 473 pM
Soluble 60-mer huBAFF (4 pM) Neutralization IC50 [2]: 9 pM
Soluble 60-mer huBAFF (4 pM) Neutralization IC90 [2]: 23 pM
